Where a chain is given by its changes, count along the chain named. In names and notes the source's numbering stands.
B1: 23H9.2E4 (antibody, V domains shown)
VH: QIQLVQSGPELKKPGETVKISCKASGYTFTTYAMSWVKQAPGKGLKWMGWINTYSGVPTYADDLKGRFAFSLETSASTAYLQINNLKNEDTATYFCARGPYAMDYWGQGTSVTVSS
VL: DIQMTQTTSSLSASLGDRVTISCSASQGINNYLNWYQQKPDGTVKLLIYYASSLHSGVPSRFSGSGSGTDYSLTISNLEPEDIATYYCQQYSQVPYTFGSGTKLEIK
B2: recombinant human TGF-beta sRII/Fc (R&D Systems, 341-BR) (Fc fusion, UniProt P37173 24-159, looked up, not shown: a dimerising Fc or GST)
chain: IPPHVQKSVNNDMIVTDNNGAVKFPQLCKFCDVRFSTCDNQKSCMSNCSITSICEKPQEVCVAVWRKNDENITLETVCHDPKLPYHDFILEDAASPKCIMKEKKKPGETFFMCSCSSDECNDNIIFSEEYNTSNPD
notes: also called TGFβ R2; TGFBR2
B3: F846TC.7F10 (antibody, human IgG4 S228P, kappa, V domains shown)
VH: EVQLVESGGDLVKPGGSLKLSCAASGFTFSNYGLSWIRQTPDKRLEWVATISSGGSYTYYPDSVKGRFTISRDSAKNTLYLQMSSLKSEDTAMYYCARHAHYYGVSPYYFDYWGQGTCLTVSS
VL: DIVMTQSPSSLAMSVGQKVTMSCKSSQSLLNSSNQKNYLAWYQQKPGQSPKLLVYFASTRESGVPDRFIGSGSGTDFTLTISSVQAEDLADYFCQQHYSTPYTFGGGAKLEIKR
notes: also called 846T.7F10
B4: F847C.26F5 (antibody, human IgG4 S228P, kappa)
heavy: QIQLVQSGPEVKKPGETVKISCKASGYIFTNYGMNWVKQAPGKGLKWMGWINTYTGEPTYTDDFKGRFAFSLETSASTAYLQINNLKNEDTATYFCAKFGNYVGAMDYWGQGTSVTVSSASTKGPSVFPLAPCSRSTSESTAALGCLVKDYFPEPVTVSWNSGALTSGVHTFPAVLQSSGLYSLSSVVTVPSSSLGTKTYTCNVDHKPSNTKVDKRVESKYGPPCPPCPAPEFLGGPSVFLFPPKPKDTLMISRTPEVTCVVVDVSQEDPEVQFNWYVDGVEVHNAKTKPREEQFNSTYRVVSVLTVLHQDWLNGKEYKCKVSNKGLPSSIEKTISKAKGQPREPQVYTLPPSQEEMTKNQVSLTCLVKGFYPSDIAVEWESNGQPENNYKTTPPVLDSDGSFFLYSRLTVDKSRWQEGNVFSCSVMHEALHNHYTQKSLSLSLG
light: EIKMNQSPSSLSASLGDTITITCHASQNINVWLSWYQQKPGNIPKLLIYKASNLHTGVPSRFSGSGSGTGFTLTISSLQPEDIATYYCQQGQSYPYTFGGGTKLELKRTVAAPSVFIFPPSDEQLKSGTASVVCLLNNFYPREAKVQWKVDNALQSGNSQESVTEQDSKDSTYSLSSTLTLSKADYEKHKVYACEVTHQGLSSPVTKSFNRGEC
notes: also called 847.26F5
B5: F846TC.14E4 (antibody, human IgG4 S228P, kappa, V domains shown)
VH: QVTLKESGPGILQPSQTLSLTCSFSGFSLSTSGMGVGWIRQPSGKGLEWLAHIWWDDDKYYNTALKSGLTISKDASKNQVFLKIASMDTADTATYYCARNLYDGSYGYYAMDYWGQGTSVTVSS
VL: DIVMTQAAFSNPVTLGTSASISCRSSKSLLHTNGITFLYWYLQKPGQSPQPLIYQMSNLASGVPDRFSSSGSGTDFTLRISRVEAEDVGVYYCAQNLELPWTFGGGTKLEINR
notes: also called 846T.14E4
B6: F849C.8H3 (antibody, human IgG4 S228P, kappa, V domains shown)
VH: QVTLKESGPGILQPSQTLSLTCSFSGFSLSTFGMGVGWIRQPSGKGLEWLAHIWWDDDKHYNPALKSRLTISKDTSKNQVFLRIANVDTADNATYYCARIDYGDYVGFAYWGQGTLVTVSA
VL: B5 VL with V3G, T5R, H31Y, T32S, F37Y, Y41F, P51L, E86D, N112K
B7: F849C.8D10 (antibody, human IgG4 S228P, kappa, V domains shown)
VH: QVQLQQTGAELVKPGASVKLSCKASGYTFTSYWINWVKQRPGQGLEWIGNIYPGSSSIYYSEKFKSKATLTVDTSSSTAYMQLSSLTSDDSAVYYCARWGYWGQGTTLTVSS
VL: DVLMTQTPLSLPVSLGDQASISCRSSQDIVHSSGNTYLEWYLQKPGQSLKLLIYKVSNRFSGVPDRFSASGSGTDFTLKISRVEAEDLGVYYCFQGSHVPPTFGSGTKLEIKR
notes: also called 849.8D10
B8: F846C.1H5 (antibody, human IgG4 S228P, kappa, V domains shown)
VH: EVQLLESGGGLVKPGGSLKLSCAASGFTFSSYAMSWVRQTPEKRLEWVASISSGGDTYYPDSVKGRFTISRDNARNILYLQMSSLRSEDTAMYYCASYGNSLFDYWGQGTTLTVSS
VL: DVVMTQTPLSLPVSLGDQASISCRSSQSLVHNSGNTYLHWYLQRPGQSPNLLIYKVSNRFSGVPDRFSGSGSGTDFTLKISRVAAEDLGVYFCSQSTHVPPTFGGGTKLEIKR
B9: recombinant human TGF-beta RI/ALK-5 Fc chimera protein (R&D Systems, 3025-BR) (Fc fusion, UniProt P36897 24-125, looked up, not shown: a dimerising Fc or GST)
chain: AAALLPGATALQCFCHLCTKDNFTCVTDGLCFVSVTETTDKVIHNSMCIAEIDLIPRDRPFVCAPSSKTGSVTTTYCCNQDHCNKIELPTTVKSSPGLGPVE
notes: also called TGFβ RI; TGFBR1
B10: F846TC.14A2 (antibody, human IgG4 S228P, kappa, V domains shown)
VH: QIQLVQSGPELKKPGETVKISCKASGYTFTNYGMNWVKQAPGKGLKWMGWINTYTGEPTYAGDLKGRFAFSLETSASTAYLQINNLKNEDTATYFCVRYTMDYWGQGTSVTVSS
VL: QAVVTQESALTTSPGETVTLTCRSSTGAVTTSNYANWVQEKPDHLFTGLIGGINNRVPGVPARFSGSLIGDKAALTITGAQTEDEAIYFCALWYSNHWVFGGGTKLTVLR
notes: also called 846T.14A2; 846.14A2
B11: F847C.4B10 (antibody, human IgG4 S228P, kappa, V domains shown)
VH: EVQLVETGGGLVKPGGSLKLSCAASGFTFSSYAMSWVRQTPEKRLEWVASISSGGSTYYPDSVKGRFTISRDNARNILYLQMSSLRSEDTAMYYCTRFTTVVEMDYWGQGTSVTVSS
VL: B10 VL with I53T, V57A, W98L
B12: F846C.1F5 (antibody, human IgG4 S228P, kappa, V domains shown)
VH: QIQLVQSGPELKKPGETVKISCKASGYTFTNYGMNWVKQAPGKGLKWMGWINTYTGEPSYADDFKGRFAFSLETSASTAYLQINNLKNEDMATYFCARWGGYDGDYYAMDYWGQGTSVTVSS
VL: NIMMTQSPSSLAVSAGEKVTMSCKSSQSVLYSSNQKNYLAWYQQKPGQSPKLLIYWASTRESGVPDRFTGSGSGTDFTLTISSVQPEDLAVYYCHQYLSSLTFGAGTKLELKR
notes: also called 846.1F5
B13: F846C.2H3 (antibody, human IgG4 S228P, kappa, V domains shown)
VH: B12 VH
VL: B12 VL
notes: also called 846.2H3
B14: F846C.1B2 (antibody, human IgG4 S228P, kappa, V domains shown)
VH: B12 VH with D103A, Y111F
VL: B12 VL with M3W, M4L, K18M, S22T, T78S, P86A
notes: also called 846.1B2
B15: F846TC.16B5 (antibody, human IgG4 S228P, kappa, V domains shown)
VH: B12 VH with S59A
VL: B12 VL with P86A
notes: also called 846T.16B5
B16: F846C.1H12 (antibody, human IgG4 S228P, kappa, V domains shown)
VH: B12 VH with Y32F, M91I, D103A
VL: B12 VL with E17Q, N34S, T69S
notes: also called 846.1H12

Experiments:
[1] = molecular target: T1, human Galectin-3 (Gal3), full-length recombinant (human, UniProt P17931 2-250); test: blocking ELISA, Gal3 coated, biotin-TLR4
T1 construct: treated here as one molecule; also called hGAL3; hGal3

[2] = molecular target: T1, human Galectin-3 (Gal3), full-length …; test: blocking ELISA, Gal3 coated, TREM2-His
Experimental: The plate was incubated for an hour at room temperature with gentle rocking. Thereafter, the plate was washed three times with PBST. Anti-6× His tag antibody-HRP (Abcam, ab1269) was then added to the wells at 1:3000 dilution in 2% BSA in PBST. The plate was incubated at room temperature for an hour with gentle rocking and then washed three times with PBST.

[3] = molecular target: T1, human Galectin-3 (Gal3), full-length …; test: blocking ELISA, Gal3 coated, biotin-Abeta42 peptide
[4] = molecular target: T1, human Galectin-3 (Gal3), full-length …; test: blocking ELISA, Gal3 coated, biotin-Abeta42 oligomer
[5] = molecular target: T1, human Galectin-3 (Gal3), full-length …; test: SPR (Carterra LSA, HC30M chip with Protein A/G, receptor-Fc captured, Gal3 0-128 nM as analyte, 25 °C)
Experimental: Briefly, kinetics experiment was performed on Caterra LSA at 25° C. A HC30M chip was immobilized with recombinant Protein A/G.
The complex was allowed to associate and dissociate for 300 s and 240 s, respectively. Eight cycles of kinetics were done sequentially for the dilution series.

[6] = molecular target: T1, human Galectin-3 (Gal3), full-length …; test: not stated. Exponent is printed without a minus sign; value taken as a negative power of ten because the column is a KD in M
[7] = molecular target: T1, human Galectin-3 (Gal3), full-length …; test: blocking ELISA, Gal3 coated, biotin-APP695
[8] = molecular target: T1, human Galectin-3 (Gal3), full-length …; test: blocking ELISA, Gal3 coated, biotin-Tau aggregates
Experimental: The plate was incubated for an hour at room temperature with gentle rocking. Thereafter, the plate was washed three times with PBST. […] The plate was incubated at room temperature for an hour with gentle rocking and then washed three times with PBST.

T1 sequence (P17931 2-250 limits assumed): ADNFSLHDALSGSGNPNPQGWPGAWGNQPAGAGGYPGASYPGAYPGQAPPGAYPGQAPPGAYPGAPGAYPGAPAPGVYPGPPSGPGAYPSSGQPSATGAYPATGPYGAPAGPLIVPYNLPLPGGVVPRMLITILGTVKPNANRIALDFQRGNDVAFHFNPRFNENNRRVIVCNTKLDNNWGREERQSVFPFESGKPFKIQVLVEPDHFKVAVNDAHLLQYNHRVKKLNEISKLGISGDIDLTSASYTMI

Binder	% blocking of Gal3-TLR4 binding [1] [%]	% blocking of Gal3-TREM2 binding [2] [%]	% blocking of Gal3-Abeta42 peptide binding [3] [%]	% blocking of Gal3-Abeta42 oligomer binding [4] [%]	Kd [5] [nM]	koff [5] [s⁻¹]	kon [5] [M⁻¹ s⁻¹]	Kd [6] [nM]	% blocking of Gal3-APP695 binding [7] [%]	% blocking of Gal3-Tau aggregates binding [8] [%]
B1	> 90	> 90	< 46	< 26	–	–	–	–	–	–
B2	–	–	–	–	725	0.0837	116000	–	–	–
B3	–	–	–	–	–	–	–	1.4	–	–
B4	–	< 47	–	–	–	–	–	20.9	87	–
B5	> 90	> 90	> 90	> 90	–	–	–	0.556	> 90	–
B6	–	–	–	–	–	–	–	–	> 90	–
B7	> 90	> 90	> 90	–	–	–	–	3.75	> 90	–
B8	–	–	–	–	–	–	–	3.41	–	–
B9	–	–	–	–	314	0.0351	112000	–	–	–
B10	> 90	–	> 90	> 90	–	–	–	3.26	> 90	–
B11	–	–	–	< 26	–	–	–	21.5	> 83	–
B12	> 90	> 90	> 90	> 90	–	–	–	1.63	> 90	> 90
B13	> 90	> 90	> 90	–	–	–	–	1.72	> 90	–
B14	> 90	> 90	> 90	–	–	–	–	5.74	> 90	> 90
B15	> 90	> 90	> 90	–	–	–	–	0.927	> 90	–
B16	–	–	–	–	–	–	–	0.622	> 90	–

Source: patent publication US20250145722A1 (TRUEBINDING, published 2025)
